Data reported in the DeepSol protein solubility set.

Assay: soluble on expression in E. coli; label from the status in PepcDB or PDB records

Sequence	soluble on expression in E. coli
MNLMLCCTPLQVLIARKIIELHPNEQFFGVMFGGVWDKKRTLYASKLAEVCSDSMNIDTGKDLKGFDFLKLMRQLKNKITHKGFDKVFLANLNSLWLQTYLSHVSFKELYTFDDGSDNIFPHPNLLREPGTFKYKLIKAFIGDKYSVNKLFKKIKKHYTVYPNYKNIVSNIEPISLWDNQIDCEIDGEVSFFIGQPLLNTKEENISLIKKLKDQIPFDYYFPHPAEDYRVDGVNYVESELIFEDYVFKHLSNKIIIYTFFSSVAFNLLSHPNVEIRFIRTSIPRWQFCYDSFPDLGLTIYKEILEHHHHHH	soluble
MSLSDNAQHLYVNGNVGSSTEEITSVEYSKLLQLKLIDESLSFQWCNNYTVLSIYSMKETFARKTIYIHFPKPLLNKWFTAVVYESSETTSNLCFDVILKDGIFINLSLPIDFILSRTRQNEYPENWLKVLNPYDFSVRPPQCLFHVDNTFSVVFLKDGGLLGLKRIPLEILNDFELQPVLFNDSSYFQSFTRMFSKYDNHNSAVVSAELLNDKYLVTLTNDATIKIWDLTTYQLNAHFDLKEKNQQVNYGAAGKYMIICGSLLFVYLPAGNGSFQVIQLENTHSSRISFKPLNVNIPLNLSSYSIWSLIDIQLVKSSIVKQSGLNLVLLWKSNTVTKLQLLSFEDSLYSSYKWIDGNSTYLSDLLDDSDLITNGNMEKALLNLKSHYSQSTYDDAQKILNKNNVMVQINDPHNQDYLNNLEALLKELHKQYQEPSTLTILDDEIIVVNSLHMYHHSTYKLDSQLETIFFNIFEREGHHHHHH	soluble
MADHAHNLRATFGHGRPIGVITRGTTGFNRLRRCDRWMAHHPLIQQALRRTSDPIALDVGYGASFTTTVEWARWLRTMRDDVRVTGLEIDPERVLPPRDGVTFELGGFELAGYQPTLVRAFNVLRQYDVDQVMDAWEMVTSRLQPGGFFVEGTCDELGRRSTWVLLNHAGPQSLTLCWDPFDVERPSDIAERLPKILIHRNVAGEKIHDVLLRTDEAWDRCAPWASYGPRVRWRAARAMLMDMGIPMSIIRRPVRDNQLTVPWSIVDPTT	not soluble
MELVSVAALAENRVIGRDGELPWPSIPADKKQYRSRVADDPVVLGRTTFESMRDDLPGSAQIVMSRSERSFSVDTAHRAASVEEAVDIAASLDAETAYVIGGAAIYALFQPHLDRMVLSRVPGEYEGDTYYPEWDAAEWELDAETDHEGFTLQEWVRSASSR	soluble
MGSDKIHHHHHHMNLKDKTLLITGIDEFVGLRTAELAIAQGMKVRGLKSSTEQNKQLQNLGVEIIIGSITDSTIAQKACQGVDIVLHTDQLAEEAGAIKNFRDVNVGGTVNMAKAAKQAGVKTFVHLSSVMVYGFNYPNGVTESGPLSGENNPYCETKIEAETAVLELNNPPDFGIIVIRAGDVYGPGSIPWIVRPVLMMRQKLFACANDGKGVINHVYIDNLIDGIFLAIEKETYGEIFNITDGQETSWKEYFMRLAAMEGLSAPLSLPKDEIKLFLKLRVQGQKLFRKKVDILPESIDFMTRPYACSIVKAQSMLNYKPTIHLEEGMQRTHEWLQKTDIQSLIK	not soluble
MAGHSKWAQIKRKKAANDLKRGKLISKHLRAIQAAARAGGSPYPEANVQLRNAIEAARADDVPMENIERLLQKLQGGGEGAEQYEEIVYEGYAPGGVALLVYALTDNRNRTASEVRHVFSKHGGSLGTTGSVAWQFERRGVVVCENTEAAQEAAIELGALDLEEEGENLTVYTEPTEAYRIAEALKAKGVRVEAVEVVQHPQNTVALPPEEAQKVMRLVEALEDLDDVQHVYTNLDPESLQVEA	soluble
MREQSGINGHEQLATFIDRTDRVLNLVDGFMPETAWLSDIETLTYLHATVSTHRHQVRVPETPMHLDAILADQVLTGGLEPRLGQAHLRTLTIMGFPSQTWPGLLDDLNRLAFDYRWVTRAICLDKTDAAKVLGRIRRQWFAKRKSIAAMLKEIMTNEASALMDSDAANKAVDADMALQELGSDLVGAAYVTATVTIWNDDPRIADERLRLVEKVIQGRDFTCMVERVNAVEAWLGSLPGHVYANVRQPPVSTLNLAHMMPFSAVWAGPERDEHFDAPPLFLAKTEGSTPFRFSLHVGDVGHTLVVGPTGAGKSVLLALMALQFRRYARSQIFAFDFGGSIRAAALAMRGDWHDLGGSLAEDASEPVALQPLAGIDAEEERAWAAEWVAAILAREKVEITPDVKEHVWSALNNLASAPKSERTLTGLSVLLQSQALKQALKPYCVGGPWGRLLDAETERVGSADVLAFETEGLIGTGAAAAVLAYLFHRIEHRLDGRPTLLIVDEGWLALDDEGFASQLREWLKTLRKKNASVIFATQSLADIDGSAIAPAIIESCPTRLFLPNERALEPQIATIYERFGLNDRQIEILSRATPKRDYYCQSRRGNRLFELGLGEVALAFTAASSKGDQILIARLMAEHGPTGFAKAWLEARGVAWATDLIITPQKEKLPLEHHHHHH	soluble
MQVDYQQLNGIALAYLGDAVYEPFIRQHLIESGFTKATKLHHHATHYVSAKAQAALIERMQAEEVLTPTEVDVFKRGRNAKSHTSAKHTDVVTYRISTGFEAVFGYLQLTQQADRIAELAQWCIKQVDEGRVSSVKLEHHHHHH	soluble
MTKGKGRNPGASGLDKHLKRKTHLERSQPKSRQHLGQLEKHKDHVLRAKKRKVKVRRLQEIKRAAAQRNPDEFNIGMTKAVMDVANGRMRQRRVRLVESDRKKDMQTTIEHNRRNVQYLEFKAQADQQRATELLNEEAAAALTSTAPQNKHIVFVNSEEEFRSFNPLKHFDVTPEMMRQHPAVRGRIRVLEKTVMPEEILMSGGHQIKSAAQKRKERREVQEKMRRSGADATPETRAAFVERLRAKKELKQYQFTDLLEEVKRESEATASSSKGAPGDDGEQEEAAAQDEVTRLLEWRREQERQAAIATARHVREVGQRIQRSKSLSALAKSIRKQSQGIKRQMEQRRESRFKPGATRRAR	not soluble
MAENKKKNDDMATVEFESSEEVSIIPTFDKMGLREDLLRGIYAYGFEKPSAIQQRAIPAILKARDVIAQAQSGTGKTATFSISVLQSLDTQVRETQALILSPTRELAVQIQKVVLALGDYMNVQCHACIGGTNLGEDIRKLDYGQHVVSGTPGRVFDMIRRRNLRTRAIKLLVLDEADEMLNKGFKEQLYDIYRYLPPGAQVVLLSATLPHEILEMTSKFMTDPIRILVKRDELTLEGIKQFFVAVDREEWKFDTLIDLYDTLTITQAVLFCNTRRKVDWLTDKMKEANFTVSSMHGDMEQKDRDEVMKEFRAGTTRVLISTDVWARGLDVPQVSLVINYDLPNNRELYIHRIGRSGRFGRKGVAINFVKQDDVRILRDIEQYYSTQIDEMPMNIADII	not soluble
MMLKQAAKKALGLTSRQSTPWSVGILRTYHENVIDHYDNPRNVGSFDKNDPNVGTGLVGAPACGDVMKLQIKVDEKTGQIVDARFKTFGCGSAIASSSVATEWVKGKAMEDVLTIKNTEIAKHLSLPPVKLHCSMLAEDAIKAAVKDYKEKRVKTNGAAAAGETTQA	not soluble
MGSDKIHHHHHHMSVETKLTIDKEYVQSFSDARNEPQWFKDIRLKGFELVETLELPKPDKTKITSWNFTNFDHKLPEVSPVASIDELRDEVKGLIGEASDTQNLLVQRDATVVYSKLDEALKAKGVIFTDLLTAVKEHGDLVEKYYMKDAVKVDENRLTALHAALVNGGTFIYVPRNVEIEVPLQSVFWFDTEKAGLFNHVIIVAEDNSSITYVENYASFGSEEAVANIVVEVFAGANAKVSFGAVDNLAAGVTTYVVRRAHVGRDSRVEWALGQMNDGNTVSENTTHLLGDNSWADTKTVSVGRGEQKQNFTTQIFHHGKHSEGYILKHGVMREAATSIFNGISKIEHGATKSHGEQTERVLMLSEKARGDANPILLIDEDDVTAGHAASVGKIDPIQMFYLMSRGISRAEAERLVIHGFLAPVVGQLPIESVKERLVEAIERKVK	not soluble
